Data from the nanobody polyreactivity screen of Harvey et al. (2022).

Assay: yeast display, Sf9 membrane polyspecificity reagent, FACS + sequencing; frameworks hold sequencing errors
Procedure, shortened: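 A nanobody's polyreactivity label depends on the gate it was sorted from. Yeast display cells were stained with 10% biotinylated, detergent-solubilized Sf9 membrane reagent for 1 hour at 4 °C, enriched on streptavidin microbeads and sorted by FACS. The low and high (top ~1%) gates were set on anti-HA fluorescence for expression and streptavidin fluorescence for reagent binding.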

Sequence	polyreactivity (PSR sort gate)
QVQLVESGGGLVQAGGSLRLSCAASGNIFSFYAMGWNRPAPGKERELVAAINWSGGDTYYADSVKGRFTISRDNAKNTVYLQMNSLKPEDTAVYYCAAEYYYQYYPGGYDYWGQGTQVTVSS	high polyreactivity
QVQLVESGGGLDQAGGSLRLSCAPSGRIFYTNAMGWYRQAPGKERELVAAISSGGGRTYYADSVKGRFTISRDNAKNTVYLQMNSLKPEDTAVYYCAASNVGYRSYSRGFDYWGQGTQVTVSS	high polyreactivity
QVQIVESGGGLVQAGGSLRLSCAASGSIFRYNAMGWYRQARGKERELVAAITSGDSTYYADSVKGRFTISRDNAKNTVYLQMNSLKPEDTAVYYCAVTTWANTQWEEYWGHGTQVTVSS	low polyreactivity
QVQLVESGGGLVQAGGSLRLSCAASGFTFEKNAMGWDRQAPGKERELGAAISRGGSTYADSVKGRFTISRDNAKNTVHLQINSLKPEDTAVYYCAADTVYIFSSAINGEFGDWGQGTQVTVSS	low polyreactivity
QVQLVESGGGLVQAGGSLRLSCAASGRTFPGYAMGWYRQAPGKERELVATITFSDGSTYYADSVKGRFTISRDNAKNSVYLQMNSLKQEDTAVYYCNARRSYFLRYGVNYWGQGNQVTVSS	low polyreactivity
QVQLVESGGGLVQAGGSLRLSCAASGSIFPRYGMGLYRQAPGKERELVAAITTGGNTYYADSVKGRFTISRDNAKNTVYLQMNSLKPEDTAVYYCNARAVTPWFGFYYWGQGTQVTVSS	low polyreactivity
QVQLVESVVGLVQAGGILRLSCSASGRTFVHYTMGWYRQAPGKETELVAAISGTGTSTYYADSVKGRFTISRDNAKNTVYLQMNSLKPEDTAVYYCARDPYFGFHMGYPRRDYWGQGTHVTVSS	low polyreactivity
QVQLVESGGGLVQAGGSLRLSCAASGFIIRRYAMGWYRPAPGKERELVARISFRGGSTYYADSVKGRFTISRDNAKNTVYLQMNSLKPEATAVYYCNRDPLYSKVVDGDYWGHGTQVTVSS	high polyreactivity
QVQLVESGGGLVQAGGSLRLSCAASGFIFSWYDMGWYRQAPGKERELVAAISYSGSNTYYADSVKGRFTISRDNAKNTVYLQMNSLKPEDTAVYYCAATLGSRWAIYDYWGQGTQVTVSS	high polyreactivity
QVQLVESGGGLVQAGGSLRLSCAASGSIFILNAMGWYRQAPGKERELVAAISSSGGSTYYADSVMGRFTISRDNAKYTDYLQMNSLKPEDSAVYYCAAERNYYFLFPYDSWGQGTQVTVSS	high polyreactivity
QVQLVESGGGLVQAGGSLRLSCAASGYIFIRNAMGWYRPAPGKDRELVAAISWTGGNTYYADSVKGRFTISRDNAKNTVYLQMNSLKPEDTAVYYCAALRSVFKSFRTTYVRYDYWGQATQVTVSS	high polyreactivity
QVQLVESGGGLVQAGGSLRLSCAASGSIFIYYAIGWYRKAPGKERELVAAIDRSGGNTYYADSVKGRFTISRDNAKNTVYLQMNSLKPEDTAVYYCAALVHRRVQYDYWGQGTQVTVSS	high polyreactivity
QVQLVESGGGLVQAGGSLRLSCAASGRTFGQHAMGWYRQAPGKDRELVASIRSGGITDYADSVKGRFTISRDNAKNTVYLQMNSLKPEDTAVYYCNAEGVWWSTRYDSWGQGTQVTVSS	low polyreactivity
QDQLVESGGGLVQARVSLRLSSAASGFIFRWNTMGWYRQAPGKERELVAAISSRGGSTYYAYSVKGRFKISRDNAKNTVYLQMNSLKPEDTAVYYCNAVRGDEYWGQGTQVTVSS	high polyreactivity
QVQLVESGGGLVQAGGSLRLSCAASGSTLRSYTMGWYRQAPGKERELVAAITTTGRTYYADSVKGRFTISRDNAKNTVYLQMNSLKPEDTAVYYCNAVAPGKYNHWGQGTQVTVSS	high polyreactivity
QVQLVESGGGLVQAGGSLRLSCAASGRIFRVYAMGWYRQAPGKERELVAVISARGGNTYYADSVKGRFTISRDNAKNTVYLQMNSMKPEDTAVYYCAARGRMDYWGQGTQVTVSS	high polyreactivity
QVQLVESGGGLVQAGGSLRLSCAASGRTFSANAMGWYRQAPGKERELVAGITSRGGGTYYADSVKGRFTISRDNAKNTVYLQMNSLKPEDTAVYYCAAPYNGGGVHSYWEYDYWGQGTQVTVSS	high polyreactivity
QVQLVESGGGLDQAGGSLRLSCAASGLIFRPYDMGWYSQAPGKERELVAAISNGDSTNYADSVKGRFTISRDNAKNTDYLEMNSLKPEDTAVYYCNAAIPSWLEYEYWGQGTQVTVSS	low polyreactivity
QVQLVESGGGLVQAGGSLRLSCAASGSTFYHNVMGWYLQAPGKERELVASIDTGDSTNYADSVKGRFTISRDNAKNTVYLQMNSLKPEDTAVYYCNADSYPALNKRGYDYWGQGTQVTVSS	low polyreactivity
QVQLVESGGGLVQAGGSLRLSCAASGSIFDYYAMGWYRQAPGKERELVAAISGTGGSTYYADSVKGRFTISRDNAKNTVYLQMNSLKPEDTAVYYCNAGRHILTALRNDGTFDYWGQGTQVTVSS	high polyreactivity
QVQLVESGGGLDQAGGSLPLTCAASGSIFDPNAMGWYRQAPGKERELVANNTIGGRTNYADSVKGRFTISRDNPKNTVYLQMNSLKPDDTAVFYCAKDSPYTSVTVLAPIIYESWGKGTQVTVSS	low polyreactivity
QVQLVESGGGLVQAGGSLRLSCAASGSIFEQYPMGWYRQAPGKERELVAAISRRSGRTYYADSVKGRFTISRDNAKHTVYLQMHSLIPEDTAVYYCAASGIYFVQYNSWGQGTHVTVSS	high polyreactivity
QVQLVESGGGLVQAGGSLRLSCAASGLTLETNAMGWYRQAPGKERELVAGITYSGGTTYYADSVKGRFTISRDNAKNTVYLQMNSLKPEDTAVYYCAAHTRTSGHNYWGQGTQVTVSS	low polyreactivity
QVQLVESGGGLVQAGGSLRLSCAASGFIFTTYAMGWYRQAPGKERELVAAISYRTGRTFYADSVKGRFTISRDNAKNTVYLQMNSLKPEDTAVYYCAAGTIQTVTTYWWTYRIGLGYWGQGTKVTVSS	high polyreactivity
QLQLVESGGGLDQAGGSLRLSCAASGSIFPGYAMGWYRQAPGKESELVATITWSGGSTYYADSVKGRFTISRDNAKNTVYLQMNSLKPEDTAVYYCNADSNWYYQWNYYGLYDYWGQGTQVTVSS	low polyreactivity
QVHLVESGGGLVQAGGSLRLSCAASGRTFFQYAMGWYTQAPGKERELVAAIRWSDSTYYADSVKGRFTISRDNAKNTVYLQMNSLKPEDTAVYYCAKTYRYYRTMDYWGQGTQVTVSS	low polyreactivity
QVQLVESGGGLVQAGGSLRLSCAASGSTFYLYPMGWLRQAPGKERELVAAIRQSGGSTYYADSVKGRFTISRDNAKNTVYLQMNSLKPEDTAVYYCAARPSYRLGQRYYYWGQGTQVTVSS	high polyreactivity
QVQLVESGGGLVQAGGSLRLSCAASGSIFVSYAMGWYRQAPGKERELVAAITRSGGSTYYADSVKGRFTISRDNAKNTLYLQMNSLKPEDTAVYYCAARSYLGAYRRYYWGQGTQVTVSS	high polyreactivity
QVQLVETGGGLVQAGCSLRLSCASSGFIFVRNAMGRYRQAPGIERELVATINSGGGTNYADSVKWRFTISRDNAKNSVYFQMNSLKPDDTAVYYCAAGQTSPERYGLGYWGQGSQVTVSS	low polyreactivity
QVQLVESGGGLVQAGGSLRLSCAASGRTFDAYAMGWYRQAPGKERELVATITSGGGTYYADSVKGRFTISRDNAKNTVYLQMNSLKPEDTAVYYCNISYVVSRKYDYWGQGTQVTVSS	low polyreactivity
